Test [1] has as its target CdiI536-T18 (bacterial two-hybrid fusion) (E. coli UPEC 536). The test is described as follows: two-hybrid.
Test [2] concerns the target CdiI3937-2-T18 (bacterial two-hybrid fusion) (Dickeya dadantii 3937) (UniProt E0SDG7). The test is described as follows: two-hybrid.
Chain of UniProt E0SDG7 (E0SDG7 whole entry, the tested form may be a part): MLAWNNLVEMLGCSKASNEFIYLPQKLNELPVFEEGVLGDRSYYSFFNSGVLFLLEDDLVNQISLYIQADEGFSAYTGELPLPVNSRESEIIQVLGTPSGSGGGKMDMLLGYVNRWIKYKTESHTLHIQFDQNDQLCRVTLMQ

In test [1], “T25-CdiA-CT536 (bacterial two-hybrid fusion) (domain or fragment)” registered a β-galactosidase activity above 300 units.

“T25-CdiA-CT3937-2 (bacterial two-hybrid fusion) (from UniProt E0SDG8 1-3326) (domain or fragment)” gave a β-galactosidase activity in test [2] above 300 units.
